The values that follow come from publication PMC4024747 (Nature Communications, 2014).

In assay [1] the target is rPfSUB1cat, recombinant Plasmodium falciparum SUB1 core catalytic domain (38 kDa) (Plasmodium falciparum, UniProt Q8I0V0). As to the kind of experiment: western blot. To be noted: both partners purified. In general terms: In western blotting, separated proteins are transferred to a membrane and probed.
Assay [2] addresses T1, recombinant P. vivax SUB1 (Plasmodium vivax, PVX_097935 (Salvador …, UniProt E6Y8B9)).
T1 construct: also called PvSUB1
As to the kind of experiment: western blot. To be noted: both partners purified.

Chain of rPfSUB1cat, recombinant Plasmodium falciparum SUB1 core catalytic domain (38 kDa) (Q8I0V0 333-668): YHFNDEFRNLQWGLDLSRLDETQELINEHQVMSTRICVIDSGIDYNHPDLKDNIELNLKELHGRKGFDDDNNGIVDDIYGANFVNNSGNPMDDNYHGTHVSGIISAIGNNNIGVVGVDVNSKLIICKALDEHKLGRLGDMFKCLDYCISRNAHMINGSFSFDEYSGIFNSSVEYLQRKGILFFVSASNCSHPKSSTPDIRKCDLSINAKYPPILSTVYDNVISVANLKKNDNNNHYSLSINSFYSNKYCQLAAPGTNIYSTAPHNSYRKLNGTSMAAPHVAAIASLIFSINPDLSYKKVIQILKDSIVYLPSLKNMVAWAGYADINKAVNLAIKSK
T1 sequence (E6Y8B9 26-630): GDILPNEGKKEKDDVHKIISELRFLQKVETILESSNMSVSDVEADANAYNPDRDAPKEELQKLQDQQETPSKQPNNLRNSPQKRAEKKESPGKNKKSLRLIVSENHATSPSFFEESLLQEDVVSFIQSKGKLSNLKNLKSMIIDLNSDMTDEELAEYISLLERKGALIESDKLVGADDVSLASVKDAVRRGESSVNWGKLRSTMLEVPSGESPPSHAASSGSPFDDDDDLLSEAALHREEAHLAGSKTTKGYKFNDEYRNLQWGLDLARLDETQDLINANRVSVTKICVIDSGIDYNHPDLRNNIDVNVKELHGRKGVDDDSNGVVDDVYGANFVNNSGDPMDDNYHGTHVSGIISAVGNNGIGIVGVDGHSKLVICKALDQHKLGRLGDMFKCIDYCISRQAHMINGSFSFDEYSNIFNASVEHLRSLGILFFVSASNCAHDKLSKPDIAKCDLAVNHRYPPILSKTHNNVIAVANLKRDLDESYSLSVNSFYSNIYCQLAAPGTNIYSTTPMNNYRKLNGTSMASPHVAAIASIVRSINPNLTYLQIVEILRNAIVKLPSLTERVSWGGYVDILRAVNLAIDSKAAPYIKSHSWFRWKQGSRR

B1: mAb NIMP.M7, PfSUB1-specific monoclonal antibody (whole antibody) (antibody, V domains shown)
VH: QVQLQESGPDLVKPSSSLKLTCTTTGYSISSGYSWHWIRQEPGKSLEWMGYIHYSGSTDYNDSLKARITITRDTASNMFFLQLSSVTSDDTAVYYCVIYRYDGQWVFDDWGAGTTVTVSS
VL: DIVLTQSPATMSASLGQRVSMSCSASSSVSTSYFHWYQQKPGSSPKLWIYSTSNLASGVPGRFSGSGSGTSYSLSISSMEAEDAATYYCHQFHRSPLTFGAGTKLELK
Regarding B1, the binding result in assay [1] and in assay [2] was “binds” throughout.
